This passage reports Kd and OD492 results from patent CN112063765A.

For assay [1], the target named is H1N1特异性的表位肽 (SEQ ID NO:4) (Influenza A virus H1N1).
The target is the same in assay [2]. The assay can be described thus: indirect ELISA, titre of purified ascites antibody. A general note: ELISA stands for enzyme-linked immunosorbent assay.

B1: 3E6单克隆抗体 (antibody, V domains shown)
VH: EVQLEESGTELARPGASVKLALKASGYIFSSYSGQWIKQRPGAGLELIGYPYPGWIDTRYTQKLTGKATLTADKSSSTLYMQLSSLASEDSAVAYCAGSYFSSDAWGLGTTLAVSS
VL: DIVLTQSPALMAASAGEKVTITCAVSQSIQSGYLAWYQQKSGISPKPWIYDTSNQAGGVPARFSGAGSGTSYSLTITSMEAEDAATYYCAQGTTSPLSFGAGTKLELK
In assay [1], B1 displayed a Kd of 0.48 nM. Moreover, in assay [2], the OD492 at dilution 1:1000 came to 4.91 OD492, the OD492 at dilution 1:10000 is 1.89 OD492, the OD492 at dilution 1:100000 is 0.455 OD492 and the OD492 at dilution 1:1000000 came to 0.121 OD492. Besides, the OD492 at dilution 1:10000000 in assay [2] stood at 0.0632 OD492.

As a reminder, the Kd is the equilibrium constant for the complex coming apart. Read a low Kd as higher affinity.
